This passage reports koff, Kd and kon results from US20200317768A1 (published 2020).

For assay [1], the target named is T1, Human latent myostatin (human, UniProt O14793 25-266; O14793 267-375).
T1 construct: Biotinylated in the ELISAs; also called human myostatin latent form
T1 sequence 1: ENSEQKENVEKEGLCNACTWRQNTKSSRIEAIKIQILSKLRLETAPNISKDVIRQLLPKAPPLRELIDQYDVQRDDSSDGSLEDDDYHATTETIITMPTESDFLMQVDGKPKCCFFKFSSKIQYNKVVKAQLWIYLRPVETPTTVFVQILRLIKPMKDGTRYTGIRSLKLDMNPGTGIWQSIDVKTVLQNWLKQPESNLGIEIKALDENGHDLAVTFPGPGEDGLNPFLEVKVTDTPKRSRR
T1 sequence 2: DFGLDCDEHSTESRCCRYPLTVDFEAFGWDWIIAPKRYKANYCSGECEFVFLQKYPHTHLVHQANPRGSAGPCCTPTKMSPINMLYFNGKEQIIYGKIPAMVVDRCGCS
Briefly: SPR (BIACORE), additional dissociation phase at pH5.8 after dissociation at pH7.4, Scrubber 2.0 fit. The method, then:
Each amino acid in the CDRs was individually mutated to histidine using In-Fusion HD Cloning Kit (Clontech Inc, or Takara Bio company) according to the manufacturer's instructions. […] All histidine-substituted variants were evaluated by a modified BIACORE® assay as compared to that described above. Briefly, an additional dissociation phase at pH5.8 was integrated into the BIACORE® assay immediately after the dissociation phase at pH7.4. This is to assess the pH-dependent dissociation between antibody (Ab) and antigen (Ag) from the complexes formed at pH7.4 as opposed to the corresponding dissociation at pH5.8. The dissociation rate at pH5.8 buffer was determined by processing and fitting data using the Scrubber 2.0 (BioLogic Software) curve fitting software.
Antibodies with a combination of these mutations in the CDRs were then generated.
On the technique in general: In SPR one partner is held on a chip, and binding of the other changes the refractive index at the surface.

Assay [2] deals with T1, Human latent myostatin. Briefly: SPR (BIACORE) as in Example 7; antigen not given, values equal those for human latent myostatin in Table 7. The method, then:
(§1) The kinetic parameters of anti-latent myostatin antibodies against human, cynomolgus monkey (cyno), and mouse latent myostatin were assessed at 37° C. at pH7.4 using a BIACORE® T200 instrument (GE Healthcare). ProA/G (Pierce) was immobilized onto all flow cells of a CM4 chip using amine coupling kit (GE Healthcare). Anti-latent myostatin antibody and analytes were prepared in ACES pH7.4 (20 mM ACES, 150 mM NaCl, 1.2 mM CaCl₂), 0.05% TWEEN® 20, 0.005% NaN₃). […] Then human, cyno, or mouse latent myostatin was injected at 3.125 to 50 nM prepared by two-fold serial dilution, followed by dissociation. The sensor surface was regenerated with 25 mM NaOH. Kinetic parameters were determined by processing and fitting the data to a 1:1 binding model using BIACORE® T200 Evaluation software, version 2.0 (GE Healthcare).
Humanized antibodies were transiently expressed in FS293-F cells, and HEK Blue Assay and BIACORE® analysis were carried out as described above.

The target of assay [3] is T2, Cynomolgus monkey latent myostatin (cynomolgus monkey, UniProt Q95J86 25-266; Q95J86 267-375).
T2 construct: signal 1-24; also called Cyno latent myostatin
T2 sequence 1: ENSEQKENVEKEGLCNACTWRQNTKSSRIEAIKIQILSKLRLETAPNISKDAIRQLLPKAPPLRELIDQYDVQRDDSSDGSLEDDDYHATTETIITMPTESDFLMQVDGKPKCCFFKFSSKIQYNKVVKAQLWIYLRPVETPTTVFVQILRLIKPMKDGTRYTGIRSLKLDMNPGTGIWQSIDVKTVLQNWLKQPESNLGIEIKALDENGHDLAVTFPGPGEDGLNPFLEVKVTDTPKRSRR
T2 sequence 2: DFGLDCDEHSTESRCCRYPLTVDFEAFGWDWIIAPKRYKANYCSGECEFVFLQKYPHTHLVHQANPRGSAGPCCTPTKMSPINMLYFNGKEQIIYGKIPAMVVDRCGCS
Briefly: SPR (BIACORE T200), 37 C, pH5.8, 1:1 fit; title prints avidity, by the text the affinity condition (capture 18.5 RU); pH 5.8. The method, then: as §1
(§2) All experimental settings were the same as in Example 7, except that measurements were also performed in ACES pH5.8 buffer in addition to ACES pH7.4 condition. Some antibodies were only measured against human latent myostatin. Antibody capture level was aimed at 185 RU and 18.5 RU, for avidity and affinity assay, respectively. Kinetic parameters were determined using 1:1 Binding fitting using BIACORE® T200 Evaluation software, version 2.0 (GE Healthcare).

In assay [4] the target is T1, Human latent myostatin. The assay is described as above. The method, then:
as §1, §2

For assay [5], the target named is T3, Mouse latent myostatin (mouse, UniProt O08689 26-267; O08689 268-376).
T3 construct: signal 1-24
T3 sequence 1: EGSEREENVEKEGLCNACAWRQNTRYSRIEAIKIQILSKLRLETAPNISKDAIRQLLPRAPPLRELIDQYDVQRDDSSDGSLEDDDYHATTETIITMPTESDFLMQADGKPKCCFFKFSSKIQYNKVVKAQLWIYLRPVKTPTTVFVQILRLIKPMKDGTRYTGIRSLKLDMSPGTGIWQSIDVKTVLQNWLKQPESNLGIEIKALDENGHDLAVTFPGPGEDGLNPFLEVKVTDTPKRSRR
T3 sequence 2: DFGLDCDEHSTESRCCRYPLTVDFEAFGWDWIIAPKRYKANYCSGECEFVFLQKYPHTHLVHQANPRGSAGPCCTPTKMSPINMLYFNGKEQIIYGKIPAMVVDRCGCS
The assay is described as above. The method, then:
as §1, §2

Assay [6] deals with T2, Cynomolgus monkey latent myostatin. Briefly: SPR (BIACORE T200), 37 C, pH7.4, 1:1 fit; title prints avidity, by the text the affinity condition (capture 18.5 RU); pH 7.4. The method, then:
as §1, §2

The target of assay [7] is T1, Human latent myostatin. The description is as above. The method, then: as §1, §2
The target of assay [8] is T3, Mouse latent myostatin. Described as above. The method, then:
as §1, §2

B1: MS_M103205H000-SG1/M103202LO00-SK1 (antibody, human IgG1, kappa, V domains shown)
VH: QVTLKESGPVLVKPTETLTLTCTVSGIDLSSYDISWVRQAPGKGLEWVGIISYAGSTYYASWAKGRLTISKDTSKNQVVLTMTNMDPVDTATYYCARGVPAYSTGGDLWGQGTLVTVSS
VL: DIVMTQSPATLSLSPGERATLSCQSSQSVYDNNWLSWFQQKPGQPPKLLIYWASTLASGVPSRFSGSGSGTDFTLTISSLQPEDAATYYCAGGYGGGLYAFGQGTKVEIKR
notes: Humanized MST1032, not pH-dependent; also called MS1032LO00-SG1; Ab001
In the case of B1, the koff in assay [1] amounted to 2.92e-05 s⁻¹; in assay [2] it was 9.52e-05 s⁻¹; in assay [3], 0.000196 s⁻¹; in assay [4] it was 0.000235 s⁻¹; in assay [5] it was 7.08e-05 s⁻¹; in assay [6] it was 0.000213 s⁻¹. Further, the koff came to 0.000245 s⁻¹ in assay [7] and 0.00016 s⁻¹ in assay [8]. Besides, the Kd in assay [2] worked out at 75 pM; in assay [3] it was 139 pM; in assay [4] it was 215 pM; in assay [5] it was 43.8 pM; in assay [6], 209 pM; in assay [7], 230 pM. The Kd in assay [8] was 122 pM. Also, the kon in assay [2] amounted to 1.27e+06 M⁻¹ s⁻¹; in assay [3], 1.41e+06 M⁻¹ s⁻¹; in assay [4], 1.09e+06 M⁻¹ s⁻¹; in assay [5], 1.62e+06 M⁻¹ s⁻¹; in assay [6], 1.02e+06 M⁻¹ s⁻¹; in assay [7], 1.07e+06 M⁻¹ s⁻¹. The molecule also returned a kon in assay [8] of 1.31e+06 M⁻¹ s⁻¹.

As a reminder, the koff is the rate constant with which the complex falls apart. The kon is the rate constant with which the complex forms.
